Measured values taken from US20110130449.

Legend:
[1] = test system: AR(me2asym)TKQTARKSTGGKAPPK
[2] = test system: AR(me2sym)TKQTARKSTGGKAPPK

Substance	activity (hydroxylation of the peptide by Jmjd6, MALDI-TOF MS) [1]	activity (hydroxylation of the peptide by Jmjd6, MALDI-TOF MS) [2]	Jmj6 hydroxylation activity (standard assay, MALDI-TOF MS) (NPKRSRSREHRR (peptide d))	position of hydroxylation (MS/MS) (NPKRSRSREHRR (peptide d))	hydroxylation of the peptide by Jmjd6 (peptide f)	hydroxylation of the peptide by Jmjd6 (peptide g)	hydroxylation of the peptide (MALDI-TOF MS), large scale (NPKRSRSREHRR (peptide d))
N-terminally His6-tagged human Jmjd6 (residues 1-343)	Double hydroxylation no demethylation	Double hydroxylation no demethylation	both the truncated Jmjd6 polypeptides and full-length Jmjd6 hydroxylated peptide d	consistent with the hydroxylation of lysine-3 in peptide d, corresponding to lysine 269 in LUC-like2	Peptides f and g, which do not contain any lysine residues, were not hydroxylated by Jmjd6.	Peptides f and g, which do not contain any lysine residues, were not hydroxylated by Jmjd6.	
full-length Jmjd6 (recombinant)			both the truncated Jmjd6 polypeptides and full-length Jmjd6 hydroxylated peptide d				leaving the assay mixture overnight at room temperature till peptide showed complete hydroxylation
